test system: O=C(O)c1cc(SSc2ccc([N+](=O)[O-])c(C(=O)O)c2)ccc1[N+](=O)[O-]; experiment: purified protein; conditions: Trx pre-reduced with 5 mM DTT, 0.4 μM, 50 mM MOPS pH 7.0, 1 mM EDTA, DTNB 10–150 μM, apparent optimal temperature (40 °C)

Substance	Km	kcat
SpTrx (Sphingomonas sp. PAMC 26621; E43A/E47A)	44.0 ± 0.1 µM	13.1 ± 0.2 s⁻¹
SpTrx (Sphingomonas sp. PAMC 26621; E47A)	39.0 ± 0.1 µM	23 ± 0.1 s⁻¹
SpTrx (Sphingomonas sp. PAMC 26621; W101A)	59.9 ± 0.2 µM	0.6 ± 0.1 s⁻¹
SpTrx (Sphingomonas sp. PAMC 26621; W101F)	50.7 ± 0.6 µM	14.6 ± 0.1 s⁻¹

same assay, conditions: Trx pre-reduced with 5 mM DTT, 0.4 μM, 50 mM MOPS pH 7.0, 1 mM EDTA, DTNB 10–150 μM, apparent optimal temperature (60 °C)

Substance	Km	kcat
SpTrx (Sphingomonas sp. PAMC 26621)	33.0 ± 0.1 µM	26.1 ± 0.1 s⁻¹
SpTrx (Sphingomonas sp. PAMC 26621; E43A)	38.3 ± 0.1 µM	23.4 ± 0.1 s⁻¹
